Test system: MS2 coat protein
Test: apparent KD of MS2 coat protein; designed switch direction (-1 OFF switch, 1 ON switch): -1; higher = weaker reporter binding
Method in brief: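 Stalled E. coli RNA polymerase transcribed designed RNA switches on Illumina chips, which were then titrated with SNAP-549-labelled MS2 coat protein, doubling from 0.7 or 1.5 nM to 3 µM. Steps lasted from 0.8–1.5 h at the lowest concentration to 10–20 min at the highest. The apparent KD is each design's median over clusters of curve-fitted normalised fluorescence.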

[1] = input ligand: microRNA oligo, concentration not stated
[2] = Eterna round: R95, input ligand: FMN 200 uM
[3] = Eterna round: R95, input ligand: microRNA oligo, concentration not stated
[4] = Eterna round: R95, input ligand: none

| Sequence | apparent KD of MS2 coat protein [1] [nM] | apparent KD of MS2 coat protein [2] [nM] | apparent KD of MS2 coat protein [3] [nM] | apparent KD of MS2 coat protein [4] [nM] | apparent KD of MS2 coat protein (input ligand: FMN 200 uM) [nM] | apparent KD of MS2 coat protein (input ligand: none) [nM] |
| --- | --- | --- | --- | --- | --- | --- |
| AGCUGUGGCCGAGGAUAUCUGAACCUUCAAACCGAAAUAUAAUCGGACAUGAGGAUCACCCAUGUAGAGAAGGCGGUCUCAGCA [Eli eng2 - 060] (Eterna round: R96, puzzle: Exclusion NG 2) | 9.95 | – | – | – | – | – |
| AGCUGUGGCCGAGGAUAUCUGAACUCAAUAACCGAAAUAUAAUCGGACAUGAGGAUCACCCAUGUAGAGAAGGCGGUCUCAGCA [Eli eng2 - 080] (Eterna round: R96, puzzle: Exclusion NG 2) | 24.2 | – | – | – | – | – |
| AGGAAUGAAGGAUAUACAUGAGGAUCACCCAUGUAAAAAAAGUCGUUUAUUGUGUCAUGUAGAAGGUCAAGAAG [JR_Exclusion3_Sub002] (puzzle: Exclusion 3) | – | 29.6 | 29.6 | 33 | – | – |
| AGGUAACAUGAGGAUCACCCAUGUCAGGAUAUCAUAAAGAUUAGAUUAGAGAAGAGGUUGAGAAGGGACUAUAU [Excluse me! 17- Jieux - Exclusion 1] (puzzle: Exclusion 1) | – | – | 41.9 | – | – | – |
| AGGUCUCGUGUCAGGAUAUAUUUUCUCUGAGCAAGGUAGAAGGGACAUGAGGAUCACCCAUGUCUGAGGAAAAU [Eternabot (L1) Solution 34] (Eterna round: R97, puzzle: Brourd's mod of Exclusion 4) | – | – | – | – | 24 | 19.1 |
| AGGUGGAAGCAGGAUAUGCUAGAAGUGUAGAAUGCAGAAGGGCUAACAUGAGGAUCACCCAUGUAAGAGGUGUA [JR_E6_Sub051] (puzzle: Exclusion 6) | – | 383 | 200 | 236 | – | – |
| AGGUGUAGAGGAUAUACUGCAAAGCACAUGAGGAUCACCCAUGUCCCUCUAUGGGAUUAUGUAGAAGGCUACACCA [Omei Ex5 C6] (Eterna round: R97, puzzle: Exclusion 5) | – | – | – | – | 17.5 | 20.2 |
| AGGUGUAGAGGAUAUUUAUUCUUCCACAUGAGGAUCACCCAUGUCCUGGUCACCAAGGACGGAGAAGGCUACACCA [Omei Ex5 D24] (Eterna round: R97, puzzle: Exclusion 5) | – | – | – | – | 57.4 | 63.5 |
| AGUAACAGAGGAUAUACUGUUUUAUGUAUUUAUUAUUUUAAACAUGAGGAUCACCCAUGUAGAAGGCUGAAUGA [JMF 98] (puzzle: Exclusion 2) | – | – | 22.4 | – | – | – |
| AGUAACAGAGGAUAUACUGUUUUAUGUGUUUAUUAUUUUAAACAUGAGGAUCACCCAUGUAGAAGGCUGAAUAA [JMF 82] (puzzle: Exclusion 2) | – | – | 40.3 | – | – | – |
| AGUAACUAUCACGAAAGUGAUAGUUACAACAGGUGAUAAACAUGAGGAUCACCCAUGUCCUCAUUUGCUCGUCUUAU [Sensor 3 - 11] (puzzle: Sensor v3, turn-off variant 2) | – | 984 | 422 | 527 | – | – |
| AGUAACUAUCACGAAAGUGAUAGUUACAAUAGCAAGUGAACAUGAGGAUCACCCAUGUCCUCAUUUGCUCGUCUUAU [Sensor 3 - 20] (puzzle: Sensor v3, turn-off variant 2) | – | 16.1 | 632 | 13.6 | – | – |
| AGUACAAUCACGAAAGUGAUUGUACAAUAAGCUUGUGAAACAUGAGGAUCACCCAUGUCCUCAUAAGCUCGUCUUAU [Mat - Sensor v2 -ver2- JL mod - D69] (Eterna round: R96, puzzle: Sensor v2, turn-off variant 2) | 416 | – | – | – | 16.1 | 18.4 |
| AGUACCUGAGUACAAAGUAACAUGAGGAUCACCCAUGUAAAUGGGUGAGAACAAGCUCACCGUUCGUCUUAAAUAAA [JL turnoff v1 79] (Eterna round: R96, puzzle: Sensor v2, turn-off variant) | 38.8 | – | – | – | 584 | 618 |
| AGUACGAUGCGUGCUGACAUGCGUCGUGCAGCAGGUGAUACAUGAGGAUCACCCAUGUCCUCAUUUGCUCGUCUUGU [Mat - Sensor v3 - Turn-off var 2 - D18] (puzzle: Sensor v3, turn-off variant 2) | – | 37.2 | 257 | 36.1 | – | – |
| AGUACUAACACGAAAGUGUUAGUACAAUAAGCUUGUGAAACAUGAGGAUCACCCAUGUCCUCCUAAGCUCGUCUUAU [salish99_TOv2_r3_049] (puzzle: Sensor v3, turn-off variant 2) | – | 45.4 | 140 | 43.2 | – | – |

| Sequence | apparent KD of MS2 coat protein [1] [nM] | apparent KD of MS2 coat protein [2] [nM] | apparent KD of MS2 coat protein [3] [nM] | apparent KD of MS2 coat protein [4] [nM] | apparent KD of MS2 coat protein (input ligand: FMN 200 uM) [nM] | apparent KD of MS2 coat protein (input ligand: none) [nM] |
| --- | --- | --- | --- | --- | --- | --- |
| AGUACUAACACGAGAGUGUUAGUACAAUAAGCUUGUGUUACAUGAGGAUCACCCAUGUCCUCAUAAGCUCGUCUUAU [Mat - Sensor v3 - Turn-off var 2 - D53] (puzzle: Sensor v3, turn-off variant 2) | – | 133 | 246 | 115 | – | – |
| AGUACUAACACGAGAGUGUUAGUACUAUAAGCUUGUGUUACAUGAGGAUCACCCAUGUCCUCAUAGGCUCGUCUUAG [Mat - Sensor v3 - Turn-off var 2 - D83] (puzzle: Sensor v3, turn-off variant 2) | – | 80.4 | 42.7 | 87.3 | – | – |
| AGUACUAACACGGAAGUGUUAGUACAAUAAGCUUGUGAAACAUGAGGAUCACCCAUGUCCUCAUAAGCUCGUCUUAU [salish99_TOv2_r3_026] (puzzle: Sensor v3, turn-off variant 2) | – | 11.1 | 315 | 18.1 | – | – |
| AGUACUAACACGUGUGUGUUAGUACAAUAAGCUUGUGAAACAUGAGGAUCACCCAUGUCCUCAUAAGCUCGUCUUAU [salish99_TOv2_r3_074] (Eterna round: R96, puzzle: Sensor v3, turn-off variant 2) | 514 | – | – | – | 14.9 | 17.1 |
| AGUACUAACACGUGUGUGUUAGUACAAUAAGCUUGUGAAACAUGAGGAUCACCCAUGUCCUCAUAAGCUCGUCUUAU [salish99_TOv2_r3_074] (puzzle: Sensor v3, turn-off variant 2) | – | 16.1 | 813 | 15 | – | – |
| AGUACUAACCCGAAAGUGUUAGUACAAUAAGCUUGUGAAACAUGAGGAUCACCCAUGUCCUCAUAAGCUCGUCUUAU [salish99_TOv2_r3_024] (puzzle: Sensor v3, turn-off variant 2) | – | 16.7 | 766 | 15.3 | – | – |
| AGUACUAUGCGAGCUGACUUGCGUAGUGCAGCAGGUGAAACAUGAGGAUCACCCAUGUCCUCAUUUGCUCGUCUUAU [Mat - Sensor v3 - Turn-off var 2 - D2] (puzzle: Sensor v3, turn-off variant 2) | – | 34.3 | 502 | 33.8 | – | – |
| AGUACUAUGCGAGCUGACUUGCGUAGUGCAGCAGGUGUUACAUGAGGAUCACCCAUGUCCUCAUUUGCUCGUCUUAU [Mat - Sensor v3 - Turn-off var 2 - D6] (puzzle: Sensor v3, turn-off variant 2) | – | 271 | 193 | 247 | – | – |
| AGUAGGUCUACCUUGGUGGAUCUGCAUAAAGCAAGUGAAACAUGAGGAUCACCCAUGUCCUCAUUUGCUCGUCUUAU [JL turnoff v2 99.20] (puzzle: Sensor v3, turn-off variant 2) | – | 14.8 | 634 | 13 | – | – |
| AGUAGUAGUAUCCGAUCCUACAUGAGGAUCACCCAUGUAGCUAGACGUGCACGCGAUGCUCGUCAGACUACCGGAUG [salish99_TOv1_r3_041] (puzzle: Sensor v3, turn-off variant 1) | – | 23.7 | 23 | 29.6 | – | – |
| AGUAGUAGUAUCCGUUCUUACAUGAGGAUCACCCAUGUUUCUUGACGUGCACGCGAUGCUCGUCAGACUACCAGAUG [salish99_TOv1_r3_055] (puzzle: Sensor v3, turn-off variant 1) | – | 68.5 | 88.4 | 91.5 | – | – |
| AGUAGUUGUUUCCGUUCUUACAUGAGGAUCACCCAUGUUUCUUGUCGUGCUCGCGUUGCUCGUCAGACUACCAGUUG [salish99_TOv1_r3_061] (puzzle: Sensor v3, turn-off variant 1) | – | 62.4 | 73.7 | 87.6 | – | – |
| AGUAGUUGUUUCCGUUCUUACAUGAGGAUCACCCAUGUUUCUUGUCGUGCUCGCGUUGCUCGUCAGACUUCCUGUUG [salish99_TOv1_r3_063] (Eterna round: R96, puzzle: Sensor v3, turn-off variant 1) | 49.5 | – | – | – | 87.5 | 76.6 |
| AGUAGUUGUUUCCGUUCUUACAUGAGGAUCACCCAUGUUUCUUGUCGUGCUCGCGUUGCUCGUCAGACUUCCUGUUG [salish99_TOv1_r3_063] (puzzle: Sensor v3, turn-off variant 1) | – | 87.2 | 102 | 123 | – | – |
| AGUAUGCGGCAGGAUAUCCAUCCGCGAAAAGGUGGAGAAGGGCUGACAUGAGGAUCACCCAUGUGCGUCCUGUA [salish99_ex6_r4_030] (Eterna round: R97, puzzle: Exclusion 6) | – | – | – | – | 25.3 | 17.7 |
| AGUCAAACGGUAGGAUAUCCAUAUCGAGUGACCCUUUCAUAACAUGAGGAUCACCCAUGUCGGUGGGAGAAGGGCCGUAAGGCA [Mat - Exclusion NG 2 - Mod of JL - D70] (Eterna round: R96, puzzle: Exclusion NG 2) | 43.1 | – | – | – | 99.6 | 52.4 |
